In PMC6238609, “Secretory granule protein chromogranin B (CHGB) forms an anion channel in membranes” (Life Science Alliance, 2018):

Assays:
[1] = target: the molecule itself; assay: SEC; partially purified CHGB in a Superose 6 column, earlier SEC step during purification
[2] = target: the molecule itself; assay: SEC; purified CHGB in detergent (0.050% Triton X-100), Superose 6 10/30 column; single symmetric peak

B1: recombinant murine chromogranin B (CHGB) (natural protein, mouse, UniProt P16014 21-677, looked up)
chain: APVDNRDHNEEMVTRCIIEVLSNALSKSSVPTITPECRQVLKKSGKEVKGEEKGENQNSKFEVRLLRDPADASGTRWASSREDAGAPVEDSQGQTKVGNEKWTEGGGHSREGVDDQESLRPSNQQASKEAKIYHSEERVGKEREKEEGKIYPMGEHREDAGEEKKHIEDSGEKPNTFSNKRSEASAKKKDESVARADAHSMELEEKTHSREQSSQESGEETRRQEKPQELTDQDQSQEESQEGEEGEEGEEGEEGEEDSASEVTKRRPRHHHGRSGSNKSSYEGHPLSEERRPSPKESKEADVATVRLGEKRSHHLAHYRASEEEPEYGEESRSYRGLQYRGRGSEEDRAPRPRSEESQEREYKRNHPDSELESTANRHGEETEEERSYEGANGRQHRGRGREPGAHSALDTREEKRLLDEGHYPVRESPIDTAKRYPQSKWQEQEKNYLNYGEEGDQGRWWQQEEQLGPEESREEVRFPDRQYEPYPITEKRKRLGALFNPYFDPLQWKNSDFEKRGNPDDSFLEDEGEDRNGVTLTEKNSFPEYNYDWWERRPFSEDVNWGYEKRSFARAPQLDLKRQYDGVAELDQLLHYRKKADEFPDFYDSEEQMGPHQEANDEKARADQRVLTAEEKKELENLAAMDLELQKIAEKFSQRG
notes: chromogranin B (CHGB), mouse; cDNA of the mouse CHGB gene (mChgb) cloned from a pcDNA3.1 plasmid into pFastBac 1; The protein needs Triton X-100-like detergents to stay soluble; also called mCHGB; mouse CHGB; source: sf9 cells (baculovirus), purified (Q-sepharose, ammonium sulfate, Ni-IDA, Superose 6 SEC) in Triton X-100
With B1 the “stoichiometry N” value [1] was 4 and the “stoichiometry N” value [2] was 2.
